Experimental findings from PMC10220053 are described below.

Broadly, the Kd is the free concentration of one partner at which half of the binding sites on the other are occupied at equilibrium, for simple one-to-one binding. Higher therefore signals weaker binding.

For this test, the target named is Eaf3^MRG–Rco1^PHD1–SID complex (S. cerevisiae) (UniProt Q12432). The test is described as follows: ITC; H3 1–12 peptides with the Eaf3^MRG–Rco1^PHD1–SID complex or with Rco1^PHD1 alone. For orientation: In ITC the heat of successive injections is recorded.
Eaf3^MRG–Rco1^PHD1–SID complex (S. cerevisiae), sequence (Q12432 218-401, chain 1 of 2): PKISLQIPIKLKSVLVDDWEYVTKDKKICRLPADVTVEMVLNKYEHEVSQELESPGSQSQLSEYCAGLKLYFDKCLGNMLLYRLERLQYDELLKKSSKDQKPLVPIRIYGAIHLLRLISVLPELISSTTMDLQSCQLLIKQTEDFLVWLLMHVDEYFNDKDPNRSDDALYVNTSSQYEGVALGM
Eaf3^MRG–Rco1^PHD1–SID complex (S. cerevisiae), sequence (Q04779 240-376, chain 2 of 2, further chain): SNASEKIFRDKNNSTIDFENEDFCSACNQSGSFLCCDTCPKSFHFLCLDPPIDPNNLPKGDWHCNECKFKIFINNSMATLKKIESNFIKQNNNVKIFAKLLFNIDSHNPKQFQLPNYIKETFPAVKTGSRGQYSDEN
“H3K4me0^1–12 peptide (from UniProt P61830 2-13)” came in with a Kd of 22 µM. With “H3K4me1^1–12 peptide (from UniProt P61830 2-13)”, the Kd is 65 µM. Under “H3K4me2^1–12 peptide (from UniProt P61830 2-13)” stands 360 µM.
